Test results: IntAct's records for PubMed 12897162

B1: Serine/threonine-protein kinase cds1 (Schizosaccharomyces pombe (strain ATCC 38366 / 972)), Q09170 (parent)
chain: MEEPEEATQATQEAPLHVSQNIAKQVVNNENVFMKLVMTRMLDGKTEVIPLTTDVHNGFWRFGRHKSCEVVLNGPRVSNFHFEIYQGHRNDSDESENVVFLHDHSSNGTFLNFERLAKNSRTILSNGDEIRIGLGVPKDEISFLCQVPVKHSRDSQKNMIKSENSHYEIIRTLGSGTFAVVKLAVEVNSGKWYAIKIINKRKILLTSSEKRATEMFQREIDILKSLHHPGVVQCHEIFENDDELFIVMEYVEGGDLMDFLIANGSIDEQDCKPLLKQLLETLLHLHKQGVTHRDIKPENILITNDFHLKISDFGLAKVIHGTGTFLETFCGTMGYLAPEVLKSKNVNLDGGYDDKVDIWSLGCVLYVMLTASIPFASSSQAKCIELISKGAYPIEPLLENEISEEGIDLINRMLEINPEKRISESEALQHPWFYTVSTHEHRTPPSSSEHEATEQLNSSS
partner: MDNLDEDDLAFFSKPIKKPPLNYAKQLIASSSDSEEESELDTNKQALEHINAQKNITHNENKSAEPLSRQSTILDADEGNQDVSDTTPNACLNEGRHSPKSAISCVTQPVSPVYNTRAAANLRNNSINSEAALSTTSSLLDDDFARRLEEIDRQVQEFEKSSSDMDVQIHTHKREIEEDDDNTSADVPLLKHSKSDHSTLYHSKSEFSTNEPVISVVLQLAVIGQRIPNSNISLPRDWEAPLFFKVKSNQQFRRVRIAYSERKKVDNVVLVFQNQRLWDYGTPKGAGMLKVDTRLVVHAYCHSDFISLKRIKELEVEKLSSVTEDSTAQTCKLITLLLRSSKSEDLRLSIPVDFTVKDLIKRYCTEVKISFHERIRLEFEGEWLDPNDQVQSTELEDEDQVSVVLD
B2: DNA repair protein rad60 (Schizosaccharomyces pombe (strain ATCC 38366 / 972)), Q9USX3 (parent)
chain: B1 partner
partner: B1 chain

Variants of: B1
Conditions: with rad60_schpo rad60, Q9USX3

Variant	effect of a mutation on the interaction
S78A;H81A	disrupting interaction

Variants of: B2
Conditions: with rad53_schpo cds1, Q09170

Variant	effect of a mutation on the interaction
T72A;I232S;Q250R;K312N	disrupting interaction
